Laboratory results: the RNAGym collection of RNA variant scans (doi:10.1073/pnas.2313332121)

B1: TPR t1 (parent)
chain: GACCAAUCUGCCCUCAGAGCUCGAGAACAUCUUCGGAUGCAGAGGAGGCAGGCUUCGGUGGCGCGAUAGCGCCAACGUCCUCAACCUCCAAUGCAUCCCACCACAUGAUGAUGCCUGAAGAGCCUUGGUUUUUUG

Variants of: B1
Test: polymerase ribozyme fitness, log enrichment relative to wild type (log ratio); higher = more active; in vitro selection for triplet polymerase activity
Outline: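 Input and output libraries were sequenced on Illumina after a single in vitro selection round, run in triplicate on PCR-built, transcribed mutant libraries of each subunit of a heterodimeric triplet polymerase ribozyme. Selection annealed libraries to a biotinylated primer, the partner subunit and triplets, incubated them frozen at −7 °C, then gel-excised extended constructs for streptavidin-bead capture and RT-PCR. Genotypes with ≥10 input reads and ≥1 read per output were kept. Fitness is the logarithm, taken in base 2, of genotype enrichment divided by wild-type enrichment, using inverse-variance-weighted replicate averages.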

Which “polymerase ribozyme fitness (log ratio)” value does the source give for GACCAAUCUGCCCUCAGAGCUCGAGAACAUUUUCGGAUGCAGAGGAGGCAGGCUUCGGUGACGCGAUAGCGCCAACGUCCUCAACCUCCAAUGCAUCCCACCACAUGAUGAUGCCUGAAGAGGCUUGGUUUUUUG [C31U G61A C123G] here?
Its value is -3.22.

Which “polymerase ribozyme fitness (log ratio)” value does the source give for GACCAAUCUGCCCUCAGAGCUCGAGAACAUUUUCGGAUGCAGAGGAGGUAGGCUUCGGUGGCGCGAUAGCGCCAAGGUCCGCAACCUCCAAUGCAACCCACCAUAUGUUGAUGCCUGAAGAGCGUUGGUCUUUUG [C31U C49U C76G U81G U96A C104U A108U C124G U130C] here?
Its value is -5.23.

With GACCAAUCUGCCCUCAGAGCUCGAGAACAUUUUCGGAUGCAGAGGAGGCAGGCUUCGGUGGCGCGAUAGCUCCAACGUCCUCAACCUCCAAUGCAUCCCACCACAUGAUGAUGCCUGAAGAGCCUUGGUUUUUUG [C31U G71U] as the variant, how does the “polymerase ribozyme fitness (log ratio)” value read?
The value was -4.09.

For GACCAAUCUGCCCUCAGAGCUCGAGAACAUUUUCGGAUGCAGAGGAGGCAGGCUUCGGUGGCGCGAUAGCGCCAACGUCCUCAACCUCCAAUGCAUCCCACCAUAUGAUGAUGCCUGAAGAGCCUUGGUUUUUUG [C31U C104U], which “polymerase ribozyme fitness (log ratio)” value is on record?
The value was -4.18.

With GACCAAUCUGCCCUCAGAGCUCGAGAACAUUUUCGGAUGCAGAGGAGGCAGGCUUCGGUGGCCCGAUAGCGCCAACGUCCUCAACCUCCAAUGCAUCCCACCACAUGAUGAUGCCUGAAGAGCCUUGGUUUUUUG [C31U G63C] as the variant, how does the “polymerase ribozyme fitness (log ratio)” value read?
Its value is -5.08.

Which “polymerase ribozyme fitness (log ratio)” value does the source give for GACCAAUCUGCCCUCAGAGCUCGAGAACAUUUUCGGAUGCAGAGGAGGCAGGCUUCGGUGGCUCGAUAGCGCCAACGUCCUCAACCUCCAAUGCAUCCCACCACAUGAUGAUGCCUGAAGAGCCUUGGUUUUUUG [C31U G63U] here?
Its value is -3.29.

With GACCAAUCUGCCCUCAGAGCUCGAGAACAUUUUCGGAUGCAGAGGAGGCAGGCUUCGGUGGCGCGAUAGCGCCAACGUCCUCAACCUCCAAUGCAUCCCACCACAUGAUGAUGCCUGAAGAGGCUUGGUUUUUUG [C31U C123G] as the variant, how does the “polymerase ribozyme fitness (log ratio)” value read?
The value was -2.99.

Which “polymerase ribozyme fitness (log ratio)” value does the source give for GACCAAUCUGCCCUCAGAGCUCGAGAACAUUUUCGGAUGCAGAGGAUGCAGGCUUCGGUGGCGCGAUAGCGCAAACGUCCUCAACCUCCAAUGCAUCCCACCACAUGAUGACGCCUGAACAGCCUUGGUUUUUUG [C31U G47U C73A U112C G120C] here?
Its value is -5.43.

For GACCAAUCUGCCCUCAGAGCUCGAGAACAUUUUCGGACGCAGAGGAGGCAGGCUUCGGUGGCGCGAUAGCGCCAACGUCCUCAACCUCCAAUGCAUCCCACCACAUGAUGAUGCCUGAAGAGCCUUGGUUUUUUG [C31U U38C], which “polymerase ribozyme fitness (log ratio)” value is on record?
Its value is -5.6.

With GACCAAUCUGCCCUCAGAGCUCGAGAACAUUUUCGGUUGCAGAGGAGGGAGGCUUCGGUGGCGCGAUAGCGCCAACGUCCUCAUCCUCCAAUGCAUCCCACCAUAUGAUGAUUCCUGAAGAGCCUUGGUUUUGUG [C31U A37U C49G A84U C104U G113U U133G] as the variant, how does the “polymerase ribozyme fitness (log ratio)” value read?
Its value is -6.55.

Which “polymerase ribozyme fitness (log ratio)” value does the source give for GACCAAUCUGCCCUCAGAGCUCGAGAACAUUUUCGGAUGCAGAGGAGGCAGGGUUCGGUGGCGCGAUAGCGCCAACGUCCUCAACCUCCAAUGCAUCCCACCACAUGAUGAUGCCUGAAGAGCAUUGGUUUUUUG [C31U C53G C124A] here?
Its value is -3.5.

With GACCAAUCUGCCCUCAGAGCUCGAGAACAUUUUCGGAUGCAGAGGAGGCAAGCUUCGGUGGCGCGAUAGCGCUAACGUCCUCAACCUCCAAUGCAUCCCACCACAAGAUGAUGCCUGAAGAGCCUUGGUUUUUUG [C31U G51A C73U U106A] as the variant, how does the “polymerase ribozyme fitness (log ratio)” value read?
The value was -3.91.

Which “polymerase ribozyme fitness (log ratio)” value does the source give for GACCAAUCUGCCCUCAGAGCUCGAGAACAUUUUCGGAUGCAGAGGAGGCAGGCUUCGGUGGCGCGAUAGCGCCAACGUCCUCAACCUCGAAUGCAUCCCACCACAUGAUGAUGCCUGAAGAGCCUUGGUUUUUUG [C31U C89G] here?
Its value is -5.1.

With GACCAAUCUGCCCUCAGAGCUCGAGAACAUUUUCGGAUGCAGAGGAGGCAGGCUUCGGUGGCGCGAUAGCGCCAACGUCCUCAACCUCUAAUGCAUCCCACCACAUGAUGAUGCCUGAAGAGCCUUGGUUUUUUG [C31U C89U] as the variant, how does the “polymerase ribozyme fitness (log ratio)” value read?
The value was -5.93.

With GACCAAUCUGCCCUCAGAGCUCGAGAACAUUUUCGGAAGCAGAGGAGGCAGGCUUCGGUGGCGCGAUCGCGUCAAGGUCCUCAACCUCCAAUGCAUCCCACCACAUGAUGAAGCCUCAAGAGCCUUGGUUUUUUG [C31U U38A A68C C72U C76G U112A G117C] as the variant, how does the “polymerase ribozyme fitness (log ratio)” value read?
The value was -6.6.

Which “polymerase ribozyme fitness (log ratio)” value does the source give for GACCAAUCUGCCCUCAGAGCUCGAGAACAUUUUCGGGUGCAGAGGAGGCAGGCUUCGGUGGCGCGAUAUCGCCAACGUCCUCAACCUCCAAUGCAUCCCACCACAUGAUGAUGCCUGAAGAGCCUUGGUUUUUUG [C31U A37G G69U] here?
The value was -3.72.

For GACCAAUCUGCCCUCAGAGCUCGAGAACAUUUUCGGAUGCAGAGGAGGCAGGCUUCGGUGGCGCGAUUGCGCCAACGUCCUCAACCUCCAAUGCAUCCCACCACAUGAUGAUGACUCAAGAGCAUUGGUUUUUUG [C31U A68U C114A G117C C124A], which “polymerase ribozyme fitness (log ratio)” value is on record?
Its value is -5.73.

For GACCAAUCUGCCCUCAGAGCUCGAGAACAUUUUCGGAUGCAGAGGAGGGAGGCUUCGGUGGCGCGAUAGCGCCAACGUCCUCAACCUCCAAUGCAUCCCACCACAUGAUGAUGCCUGAAGAGCCUUGGUUUUUUG [C31U C49G], which “polymerase ribozyme fitness (log ratio)” value is on record?
Its value is -4.41.

With GACCAAUCUGCCCUCAGAGCUCGAGAACAUUUUCGGAUGCAGAGGGGGAAGGCUUCGGUAGCGCGAUAGCGCCAACGUCCUCAACCUCCAAUGCAUCCCACCACCUGAUAAUGCCUGAAGAGCCUUGGUUUUUUG [C31U A46G C49A G60A A105C G110A] as the variant, how does the “polymerase ribozyme fitness (log ratio)” value read?
Its value is -5.83.

For GACCAAUCUGCCCUCAGAGCUCGAGAACAUUUUCGGAUGCAGACGAGGCAGGCUUCGGUAGCGCGAUAGCGCCAACGUCCUCAACCUCCAAUGCAUCCCACCACAUGAUGAUGCCUGAAGAGCCUUGGUUUUUUG [C31U G44C G60A], which “polymerase ribozyme fitness (log ratio)” value is on record?
The value was -5.87.

With GACCAAUCUGCCCUCAGAGCUCGAGAACAUUUUCGGAUGCAGAGGAGGCAGGCUUCGGUAACGCGAUAGCGCCAACGUCCUCAACCUCCAAUGCAUCCCACCACAUGAUGAUGCCUGAAGAGGCUUGGUUUUUUG [C31U G60A G61A C123G] as the variant, how does the “polymerase ribozyme fitness (log ratio)” value read?
The value was -6.05.
